Experimental data from patent publication US20210393777A1.
One block for each substance: values may come before it.

What was measured:
[1] = target: LDLR (human) (UniProt P01130)
[2] = target: human PCSK9-D347Y (human) (UniProt Q8NBP7); assay: cell-based or functional assay

LDLR (human), sequence (P01130 22-860): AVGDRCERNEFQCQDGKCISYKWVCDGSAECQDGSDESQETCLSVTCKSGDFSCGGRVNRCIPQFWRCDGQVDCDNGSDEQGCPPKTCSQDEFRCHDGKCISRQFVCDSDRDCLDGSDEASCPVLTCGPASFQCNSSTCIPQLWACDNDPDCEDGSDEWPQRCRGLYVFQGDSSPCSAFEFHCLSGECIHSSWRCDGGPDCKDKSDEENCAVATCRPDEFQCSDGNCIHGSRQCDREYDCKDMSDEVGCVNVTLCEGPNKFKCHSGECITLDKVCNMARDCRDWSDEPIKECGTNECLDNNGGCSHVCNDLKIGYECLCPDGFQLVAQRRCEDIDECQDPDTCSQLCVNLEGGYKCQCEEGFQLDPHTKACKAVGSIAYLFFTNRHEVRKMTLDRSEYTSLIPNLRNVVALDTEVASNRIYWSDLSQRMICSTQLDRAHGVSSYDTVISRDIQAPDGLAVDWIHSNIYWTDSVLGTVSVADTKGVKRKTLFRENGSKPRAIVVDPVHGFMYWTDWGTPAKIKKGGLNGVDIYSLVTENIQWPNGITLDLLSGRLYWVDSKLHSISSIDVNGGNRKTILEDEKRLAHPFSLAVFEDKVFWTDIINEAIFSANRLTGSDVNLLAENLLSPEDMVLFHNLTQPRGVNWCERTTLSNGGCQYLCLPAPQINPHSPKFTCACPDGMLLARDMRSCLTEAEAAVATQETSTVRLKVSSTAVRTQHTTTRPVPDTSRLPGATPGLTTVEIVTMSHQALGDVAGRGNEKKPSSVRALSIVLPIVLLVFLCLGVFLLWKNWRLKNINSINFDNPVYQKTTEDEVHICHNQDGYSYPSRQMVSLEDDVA

IC50 of the fall in RFU as PCSK9 concentration rises ('Inhibition of different PCSK9 antigen species'; binding and uptake of LDL by cells) [1]: 2.46 µg/mL
Substance: Cynomolgus monkey PCSK9 (from UniProt A0A7N9D9N8) (enzyme)

Biological activity (LDL uptake assay in HepG2 cells), formulation 20, 25 C, month 0 (% of reference standard) [2]: 104
Biological activity (LDL uptake assay in HepG2 cells), formulation 20, 25 C, month 1 (% of reference standard) [2]: 94.2
Biological activity (LDL uptake assay in HepG2 cells), formulation 20, 25 C, month 3 (% of reference standard) [2]: 92.6
Biological activity (LDL uptake assay in HepG2 cells), formulation 20, 25 C, month 6 (% of reference standard) [2]: 81.1
Biological activity (LDL uptake assay in HepG2 cells), formulation 28, 2-8 C, month 0 (% of reference standard) [2]: 120
Biological activity (LDL uptake assay in HepG2 cells), formulation 28, 2-8 C, month 1 (% of reference standard) [2]: 106
Biological activity (LDL uptake assay in HepG2 cells), formulation 28, 2-8 C, month 2 (% of reference standard) [2]: 111
Biological activity (LDL uptake assay in HepG2 cells), formulation 28, 2-8 C, month 3 (% of reference standard) [2]: 109
Biological activity (LDL uptake assay in HepG2 cells), formulation 28, 2-8 C, month 6 (% of reference standard) [2]: 106
Biological activity (LDL uptake assay in HepG2 cells), formulation 28, 2-8 C, month 9 (% of reference standard) [2]: 104
Biological activity (LDL uptake assay in HepG2 cells), formulation 28, 2-8 C, month 12 (% of reference standard) [2]: 109
Biological activity (LDL uptake assay in HepG2 cells), formulation 29, 2-8 C, month 0 (% of reference standard) [2]: 102
Biological activity (LDL uptake assay in HepG2 cells), formulation 29, 2-8 C, month 1 (% of reference standard) [2]: 103
Biological activity (LDL uptake assay in HepG2 cells), formulation 29, 2-8 C, month 2 (% of reference standard) [2]: 97.3
Biological activity (LDL uptake assay in HepG2 cells), formulation 29, 2-8 C, month 3 (% of reference standard) [2]: 90.3
Biological activity (LDL uptake assay in HepG2 cells), formulation 29, 2-8 C, month 6 (% of reference standard) [2]: 84.9
Biological activity (LDL uptake assay in HepG2 cells), formulation 29, 2-8 C, month 9 (% of reference standard) [2]: 103
Biological activity (LDL uptake assay in HepG2 cells), formulation 29, 2-8 C, month 12 (% of reference standard) [2]: 97.7
Biological activity (LDL uptake assay in HepG2 cells), formulation 30, 2-8 C, month 0 (% of reference standard) [2]: 114
Biological activity (LDL uptake assay in HepG2 cells), formulation 30, 2-8 C, month 1 (% of reference standard) [2]: 94.6
Biological activity (LDL uptake assay in HepG2 cells), formulation 30, 2-8 C, month 2 (% of reference standard) [2]: 96.8
Biological activity (LDL uptake assay in HepG2 cells), formulation 30, 2-8 C, month 3 (% of reference standard) [2]: 98.7
Biological activity (LDL uptake assay in HepG2 cells), formulation 30, 2-8 C, month 6 (% of reference standard) [2]: 92.3
Biological activity (LDL uptake assay in HepG2 cells), formulation 30, 2-8 C, month 9 (% of reference standard) [2]: 106
Biological activity (LDL uptake assay in HepG2 cells), formulation 30, 2-8 C, month 12 (% of reference standard) [2]: 97.2
Biological activity (LDL uptake assay in HepG2 cells), formulation 31, 2-8 C, month 0 (% of reference standard) [2]: 122
Biological activity (LDL uptake assay in HepG2 cells), formulation 31, 2-8 C, month 1 (% of reference standard) [2]: 97.9
Biological activity (LDL uptake assay in HepG2 cells), formulation 31, 2-8 C, month 2 (% of reference standard) [2]: 83.5
Biological activity (LDL uptake assay in HepG2 cells), formulation 31, 2-8 C, month 3 (% of reference standard) [2]: 107
Biological activity (LDL uptake assay in HepG2 cells), formulation 31, 2-8 C, month 6 (% of reference standard) [2]: 108
Biological activity (LDL uptake assay in HepG2 cells), formulation 31, 2-8 C, month 9 (% of reference standard) [2]: 87.8
Biological activity (LDL uptake assay in HepG2 cells), formulation 31, 2-8 C, month 12 (% of reference standard) [2]: 102
EC50, uptake of fluorescently labeled LDL by HepG2 cells exposed to human PCSK9-D347Y [2]: 0.0927 µg/mL
Substance: JS002 (antibody)

EC50, uptake of fluorescently labeled LDL by HepG2 cells exposed to human PCSK9-D347Y [2]: 0.151 µg/mL
Substance: evolocumab (antibody)
